Patent US11278600B2, “Human alpha-galactosidase variants” (Codexis, Inc., priority 2014, dated 2022)

How the values were obtained:
Assay type in all cases: biochemical
[1] = HTP-analysis of yeast culture supernatants, no challenge (MUGal hydrolysis); settings: activity of the variant/activity of Rd3BB (SEQ ID NO: 13), yeast culture supernatant
In short: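 Activity read as 4-methylumbelliferyl α-D-galactopyranoside hydrolysis: fluorescence (355/448 nm) after sodium carbonate stop, following 30-180 min at 37° C with 2 mM MUGal stock at pH 4.6–4.8. Enzyme source is unchallenged culture supernatant of INVSc1 yeast expressing GLA variants, grown 66-84 h at 30° C.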

[2] = HTP-analysis of supernatants pretreated with bovine serum (MUGal hydrolysis); settings: activity of the variant/activity of Rd3BB (SEQ ID NO: 13), yeast culture supernatant
In short: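 Yeast INVSc1 culture supernatants containing secreted GLA variants were mixed with bovine serum (20:80) and held 1 h at 37° C. Serum-treated samples then reacted with MUGal (4 mM stock) in citrate/McIlvaine buffer (pH 4.3/4.8) for 180 min at 37° C., were quenched with sodium carbonate, and read by fluorescence (Ex 355, Em 448 nm).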

[3] = HTP-analysis of supernatants pretreated with acid (MUGal hydrolysis); settings: challenge at pH 4.0; activity of the variant/activity of Rd3BB (SEQ ID NO: 13); yeast culture supernatant
In short: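 MUGal hydrolysis was tracked by fluorescence (Ex 355 nm, Em 448 nm) after a 30-180 min reaction at 37° C. in pH 4.8 McIlvaine/citrate buffer, stopped with 1 M sodium carbonate. Beforehand, yeast (INVSc1) culture supernatants carrying GLA variants were held 1-3 h at 37° C. in acidic McIlvaine buffer, pH 3.3-4.3.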

[4] = HTP-analysis of supernatants pretreated with base (MUGal hydrolysis); settings: challenge at pH 8.2; activity of the variant/activity of Rd3BB (SEQ ID NO: 13); yeast culture supernatant
In short: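 Supernatants from INVSc1 yeast expressing GLA variants (SD-Ura, 66-84 h, 30° C) were mixed with McIlvaine buffer pH 7.0-8.2 or 200 mM sodium bicarbonate pH 9.1-9.7 and held 1-18 h at 37° C. Residual activity was then measured on MUGal at pH 4.8/4.3, 37° C, 30-180 min, by fluorescence (Ex 355/Em 448 nm).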

Molecule	Relative Activity of GLA Variants After No Challenge (NC) [1]	Relative Activity of GLA Variants After Challenge with Serum [2]	Relative Activity of GLA Variants After Challenge at pH 4.0 [3]	Relative Activity of GLA Variants After Challenge at pH 8.2 [4]
343 (protein, Synthetic Polypeptide sequence of Variant No. 343 of mature Human GLA) LDNGLARTPTMGWLHWERFMCNLDCQEEPDSCISEKLFMEMAERMVSEGWKDAGYEYLCIDDCWMAPQRDSEGRLQADPQRFPHGIRQLANYVHSIGLKLGIYADVGNKTCAGFPGSFGYYDIDAQTFADWGVDLLKFDGCYCDSLENLADGYKHMSLALNRTGRSIVYSCEWPLYMWPFQKPNYTEIRQYCNHWRNFADIDDSWASIKSILDWTSRNQERIVDVAGPGGWNDPDMLVIGNFGLSWDQQVTQMALWAIMAAPLFMSNDLRHISPQAKALLQDKDVIAINQDPLGKQGYQLRKGDNFEVWERPLSGLAWAVAIINRQEIGGPRSYTIAVASLGKGVACNPACFITQLLPVKRKLGFYNWSSRLKSHINPTGTVLLQLENTMQMSLKDLL	+ (+ = 0.5 to 1.5 relative activity over Rd3BB (SEQ ID NO: 13))	+ (+ = 0.5 to 1.5 relative activity over Rd3BB (SEQ ID NO: 13))	+ (+ = 0.5 to 1.5 relative activity over Rd3BB (SEQ ID NO: 13))	+ (+ = 0.5 to 1.5 relative activity over Rd3BB (SEQ ID NO: 13))
344 (protein, Synthetic Polypeptide sequence of Variant No. 344 of mature Human GLA) LDNGLARTPTMGWLHWERFMCNLDCQEEPDSCISEKLFMEMAERMVSEGWKDAGYEYLCIDDCWMAPQRDSEGRLQADPQRFPHGIRQLANYVHSIGLKLGIYADVGNKTCAGFPGSFGYYDIDAQTFADWGVDLLKFDGCYCDSLENLADGYKHMSLALNRTGRSIVYSCEWPLYMWPFQKPNYTEIRQYCNHWRNFADIDDSWASIKSILDWTSRNQERIVDVAGPGGWNDPDMLVIGNFGLSWDQQVTQMALWAIMAAPLFMSNDLRHISPQAKALLQDKDVIAINQDPLGKQGYQLRKGDNFEVWERPLSGLAWAVAIINRQEIGGPRSYTIAVASLGKGVACNPACFITQLLPVKRQLGFYNWTSRLKSHINPTGTVLLQLENTMQMSLKDLL	+ (+ = 0.5 to 1.5 relative activity over Rd3BB (SEQ ID NO: 13))	++ (++ = >1.5 to 2.5 relative activity over Rd3BB (SEQ ID NO: 13))	+ (+ = 0.5 to 1.5 relative activity over Rd3BB (SEQ ID NO: 13))	+ (+ = 0.5 to 1.5 relative activity over Rd3BB (SEQ ID NO: 13))
345 (protein, Synthetic Polypeptide sequence of Variant No. 345 of mature Human GLA) LDNGLARTPTMGWLHWERFMCNLDCQEEPDSCISEKLFMEMAERMVSEGWKDAGYEYLCIDDCWMAPQRDSEGRLQADPQRFPHGIRQLANYVHSIGLKLGIYADVGNKTCAGFPGSFGYYDIDAQTFADWGVDLLKFDGCYCDSLENLADGYKHMSLALNRTGRSIVYSCEWPLYMWPFQKPNYTEIRQYCNHWRNFADIDDSWASIKSILDWTSRNPERIVDVAGPGGWNDPDMLVIGNFGLSWDQQVTQKALWAIMAAPLFMFNDLRHISPQAKALLQDKEVIAINPDPFGKQGYQLRKGDNFEGWERPLFGLAWAVAIINRQEIGGPRSYTIPVASLGEGVACNPACFITQLLPVKRKLGFYNWTSRLKSHINPTGTVLLQLENTMQMSLKDLL	+ (+ = 0.5 to 1.5 relative activity over Rd3BB (SEQ ID NO: 13))	+ (+ = 0.5 to 1.5 relative activity over Rd3BB (SEQ ID NO: 13))	++ (++ = >1.5 to 2.5 relative activity over Rd3BB (SEQ ID NO: 13))	+++ (+++ = >2.5 relative activity over Rd3BB (SEQ ID NO: 13))
